Data as given in paper PMC12622831.

Legend:
[1] = molecular target: Dengue virus serotype 2 (ET300 strain) non-structural protein 1, C-terminally His-tagged, purified (Dengue virus serotype 2, strain ET300); assay: SEC; purified His-tagged NS1, 0.5 mL on Superdex 200 increase 10/300 GL in PBS; fractions analysed by NS1 ELISA
[2] = molecular target: Dengue virus serotype 2 (ET300 strain) non-structural protein 1, untagged recombinant, expressed in suspension HEK293 cells (Dengue virus serotype 2, strain ET300); assay: SEC; concentrated (about 10-fold, 520 μg/mL) NS1 expression medium, 0.5 mL on Superdex 200 increase 10/300 GL in PBS at 0.75 mL per min; NS1 in 0.25 mL fractions by ELISA and immunoblot

## Dengue virus serotype 2 (ET300 strain) non-structural protein 1, C-terminally His-tagged, purified (natural protein)
[1]
  stoichiometry N: 6

## Dengue virus serotype 2 (ET300 strain) non-structural protein 1, untagged recombinant, expressed in suspension HEK293 cells (natural protein)
[2]
  stoichiometry N: 6
